Target: human IL-12, IL-23, IL-12p40
Experiment: SPR

B1: Antibody 1 (antibody, human IgG1, kappa, V domains shown)
VH: EVQLQQSGADLVRSGASIKLSCTASGFNIKDYYMHWVKQRPEQGLEWIGWIDPENGDTEYAPKFQGKATMTADTSSNTAYLQLSSLTSEDTAVYYCNACKELRYFDVWGAGTTVTVSS
VL: DIVLTQSPATLSVTPGDSVSLSCRASQSISINLHWYQQKSHESPRLLIKFASQSISGIPSRFSGYGSGTDFTLSINSVETEDFGRYFCQQSNSWPLTFGAGTKLELKR
A Kd of 0.04 to 0.07 nM was found for B1 in this work.

Reference: patent publication US20110262445A1
